Assay results from patent publication US9707274B2, “Methods for preventing and treating post-traumatic stress disorder (PTSD)” (priority 2007, dated 2017).
No end group written: not given here.

What was measured:
α-adrenergic = settings: topical nasal application; cited from earlier work
[1] = tested on: human brain muscarinic cholinergic receptor; settings: in vitro; cited from earlier work
[2] = Data set 1: tissue and blood distribution of intranasal HC with and without 1% PHE (pretreatment intervals 0, 5, 15 min merged); format: in vivo, rats
Excerpt: We investigated whether incorporation of a vasoconstrictor (phenylephrine, PHE) in the nasal formulation enhances drug targeting of an intranasally applied neuropeptide (hypocretin-1, HC) to the brain in rodents. Several factors may effect CNS concentrations of HC following intranasal administration of HC in the presence of PHE, including the dose of vasoconstrictor, the time after intranasal delivery, and the pretreatment time interval. PHE is commonly used at a dose of 1% for nasal decongestion and topical nasal application of PHE results in a rapid onset of action and duration of action of approximately 4 hours. Ideally, it would be preferred to have a nasal formulation where the vasoconstrictor and CNS drug are administered together, without the need for pretreatment of the nasal cavity with vasoconstrictor. Clearly this would be more convenient than having to intranasally pretreat, wait a period of time (5 min or 15 min), and then intranasally administer the CNS drug with additional vasoconstrictor. However, waiting a short period of time may be a necessary step to allow the vasoconstrictor to activate adrenergic receptors located on blood vessels in the nasal cavity to result in constriction. Thus, in these experiments, three pretreatment time intervals were investigated: 0 min (or no pretreatment), 5 min, 15 min, to determine the time interval necessary to wait to allow the intranasally applied 1% PHE to take effect. Anesthetized rats were sacrificed at 30 minutes following intranasal delivery of HC and 1% PHE, since typically high brain concentrations are achieved within 25-30 minutes of intranasal administration.
One-way ANOVAs comparing tissue concentrations in the three groups from the PHE-treated animals were also performed. […] Thus, the therapeutic compound(s) and vasoconstrictor(s) may be combined in a pharmaceutical composition while retaining full therapeutic benefit of the present invention. […] As a result, data obtained from control animals with different pretreatment time intervals were merged and data obtained from PHE-treated animals with different pretreatment time intervals were merged. Statistical comparisons were made between tissue concentrations in control animals (n=28) and PHE-treated animals (n=23).

[3] = parameters: species or system rats; settings: rat, in vivo
Excerpt: Incorporation of at least one vasoconstrictor in a nasal formulation including at least one therapeutic compound, i.e., a pharmaceutical composition, enhances intranasal therapeutic compounds targeting of therapeutics to, inter alia, the CNS, meninges and lymphatics by reducing absorption into the blood, increasing concentrations in, inter alia, the CNS, or both. […] Inclusion of a vasoconstrictor in the intranasal formulation (IN PHE) further enhances brain targeting of HC compared to the intravenous delivery from the previous study (Table 2, IN PHE vs. IV). In addition, compared to intranasal delivery with no additives, intranasal administration of HC in combination with 1% PHE further enhances intranasal drug targeting to the brain, with increased targeting to the olfactory bulbs (7-fold increase), anterior olfactory nucleus (2-fold increase), frontal cortex (2-fold increase), hippocampus (2-fold increase), and hypothalamus (2-fold increase) (Table 2, IN PHE vs. IN). 1% PHE also enhances intranasal drug targeting to the superficial and deep cervical lymph nodes (5 to 6-fold) and to the meninges surrounding the brain (2-fold). Therefore, inclusion of a vasoconstrictor in an intranasal formulation is a novel strategy to further enhance intranasal drug targeting to the brain and lymphatics compared to other routes of administration. […]

[4] = rat, in vivo
Method: Both vasoconstricting agents are α-adrenergic agonists with short duration of action (4-6 hours). The therapeutic compound selected was hypocretin-1 (HC, MW 3500), a peptide with therapeutic potential for treating narcolepsy. In addition to determining the effect of vasoconstrictors on the intranasal delivery of hypocretin-1 to the CNS, peripheral tissues and blood, vasoconstrictor effects on the drug targeting index (DTI) were also examined.
Thirty minutes following onset of intranasal delivery, rats were perfused with saline and fixed with 4% paraformaldehyde. […] The DTI for each tissue was calculated by dividing the ratio of mean tissue concentration to blood area under the curve (AUC) of the vasoconstrictor group by the ratio of mean tissue concentration to blood AUC of the control group. DTI>1.0 indicated a drug targeting advantage with the vasoconstrictor.

[5] = tested on: saliva and plasma cortisol response; settings: general intranasal insulin 40 IU, 26 normal adult men, placebo controlled; cited from earlier work
[6] = cited from earlier work

CNC[C@H](O)c1cccc(O)c1 [PHE, phenylephrine]
Duration of action (α-adrenergic): approximately 4 hours

O=P(O)(O)OP(=O)(O)O [pyrophosphate]
Concentration protecting the receptor from inactivation by oxidants such as heme [1]: 1-5 μm

hypocretin-1 (QPLPDCCRQKTCSCRLYELLHGAGNHAAGILTL; ends and bridges not checked; also: 125I label, site not given here; UniProt O43612 34-66, looked up) [HC]
Concentration of HC, Trigeminal Nerve ([2]; intranasal HC + 1% PHE, rats, 30 min): 1.71 ± 0.15 nM | Concentration of HC, Medulla ([2]; intranasal HC control (no PHE), rats, 30 min): 1.26 ± 0.22 nM | HC targeting (tissue-to-blood ratio), 1% PHE vs control, trigeminal nerve ([2]; rat, in vivo): not significantly different | HC targeting (tissue-to-blood ratio), increase with 1% PHE vs control, anterior olfactory nucleus ([2]; rat, in vivo): 2.4 fold | HC targeting (tissue-to-blood ratio), increase with 1% PHE vs control, cerebellum ([2]; rat, in vivo): 1.7 fold | HC targeting (tissue-to-blood ratio), increase with 1% PHE vs control, deep cervical lymph nodes ([2]; rat, in vivo): 5.7 fold | HC targeting (tissue-to-blood ratio), increase with 1% PHE vs control, dorsal meninges ([2]; rat, in vivo): 1.7 fold | HC targeting (tissue-to-blood ratio), increase with 1% PHE vs control, frontal cortex ([2]; rat, in vivo): 2.3 fold | HC targeting (tissue-to-blood ratio), increase with 1% PHE vs control, medulla ([2]; rat, in vivo): 1.7 fold | HC targeting (tissue-to-blood ratio), increase with 1% PHE vs control, midbrain ([2]; rat, in vivo): 1.7 fold | HC targeting (tissue-to-blood ratio), increase with 1% PHE vs control, olfactory bulbs ([2]; rat, in vivo): 6.8 fold | HC targeting (tissue-to-blood ratio), increase with 1% PHE vs control, superficial cervical lymph nodes ([2]; rat, in vivo): 5.7 fold | HC targeting (tissue-to-blood ratio), increase with 1% PHE vs control, ventral meninges ([2]; rat, in vivo): 2.9 fold | HC drug targeting, enhancement to the meninges surrounding the brain [3]: 2 fold | Respiration during intranasal delivery [4]: did not lead to any improvement in respiration | Respiratory distress in animals during intranasal delivery [4]: fewer incidences of respiratory distress

insulin
Saliva and plasma cortisol response to the Trier Social Stress Test [5]: significantly diminished | Memory, attention and functioning in Alzheimer's patients ([6]; intranasal insulin over a 21 day period): improve memory, attention and functioning | Blood levels of insulin or glucose ([6]; intranasal insulin treatment, healthy adults): no change | Memory in healthy adults ([6]; intranasal insulin treatment): improves memory | Memory in patients with Alzheimer's disease ([6]; intranasal insulin, twenty minutes after a single treatment): improve memory
